This series deals with the molecule itself. Kind of series: SEC; gel filtration of the single purified protein, Superdex 75 16/60 calibrated with molecular weight standards; 50 mM Tris-HCl pH 7.5, 150 mM NaCl. For orientation: Size exclusion chromatography separates by hydrodynamic size, large species first.

B1: human Siah1 without the RING domain (amino acids 91-282) (domain or fragment, UniProt Q8IUQ4 91-282, looked up)
chain: ANSVLFPCKYASSGCEITLPHTEKADHEELCEFRPYSCPCPGASCKWQGSLDAVMPHLMHQHKSITTLQGEDIVFLATDINLPGAVDWVMMQSCFGFHFMLVLEKQEKYDGHQQFFAIVQLIGTRKQAENFAYRLELNGHRRRLTWEATPRSIHEGIATAIMNSDCLVFDTSIAQLFAENGNLGINVTISMC
notes: human Siah1 without the RING domain, amino acids 91-282 of UniProt Q8IUQ4 (the results say residues 90-282); theoretical mass of a monomer 21,897 Da; The 15N-labelled form was used in the NMR experiment and the unlabelled form in gel filtration; it says only 'a similar protocol to that for PEG3-SCAN'; also called E3 ubiquitin-protein ligase Siah1; 15N-labeled Siah1; source: E. coli, purified by a …
B1: the stoichiometry N (commonly the number of molecules, sites or subunits per partner or assembly) worked out at 2.

B2: SCAN domain of human paternally expressed gene 3 protein (PEG3), amino acids 40-130 (domain or fragment)
chain: GHMTDSEFFHQRFRNLIYVEFVGPRKTLIKLRNLCLDWLQPETRTKEEIIELLVLEQYLTIIPEKLKPWVRAKKPENCEKLVTLLENYKEMYQP
notes: three non-native residues (Gly-His-Met) left at the N-terminus after TEV digestion; SCAN domain of human PEG3, amino acids 40-130 of UniProt Q9GZU2; theoretical mass of the construct 11,434 Da; Homodimer by gel filtration and in the crystal; The gene was synthetic (GenScript), in a modified pET15b vector; also called PEG3-SCAN; PEG3-SCAN domain; source: E. coli Bl21 (DE3) Gold, purified (HisTrap, …)
As for B2, the “stoichiometry N” value came to 2.

The values are drawn from publication PMC3720700, “Structure of the SCAN Domain of Human Paternally Expressed Gene 3 Protein” (PLoS ONE, 2013).
